Patent US20150104457A1 (OREGA BIOTECH, published 2015)
Values joined by “and” are separate entries in the source; they are usually repeats but may differ in a detail not shown here. Identical values can stand only once.

T1: recombinant human IL-17A/F (heterodimer) (human, UniProt Q16552 24-155; Q96PD4 31-163)
T1 sequence 1: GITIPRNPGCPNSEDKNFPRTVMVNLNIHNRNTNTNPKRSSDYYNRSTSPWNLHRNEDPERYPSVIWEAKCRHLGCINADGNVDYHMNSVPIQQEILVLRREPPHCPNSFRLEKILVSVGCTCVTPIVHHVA
T1 sequence 2: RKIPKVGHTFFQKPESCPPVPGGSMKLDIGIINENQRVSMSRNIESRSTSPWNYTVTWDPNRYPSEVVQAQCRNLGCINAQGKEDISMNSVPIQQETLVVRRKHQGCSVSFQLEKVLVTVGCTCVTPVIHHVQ

T2: recombinant human IL-17A (human, UniProt Q16552 24-155)
T2 construct: also called CTLA-8; IL-17A/A homodimer
T2 sequence: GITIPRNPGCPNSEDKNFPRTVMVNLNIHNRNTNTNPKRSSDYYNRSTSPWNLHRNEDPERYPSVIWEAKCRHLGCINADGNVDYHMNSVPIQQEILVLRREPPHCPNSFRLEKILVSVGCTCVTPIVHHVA


Key:
[1] = target: T1, recombinant human IL-17A/F (heterodimer); test: competitive ELISA in solution (method of Friguet et al.)
Protocol: (§1) For this determination a competitive ELISA with the various isoforms was performed.
(§2) Appropriate concentrations of the respective antigens and monoclonal antibodies were mixed in assay buffer and incubated overnight with continuous shaking at room temperature. The same monoclonal antibodies in the same concentration, but without antigen were used as positive reference (100% value). Pre-incubated antibodies were added to the plates. The plates were incubated with continuous shaking and washed 4× with 250 μL/well TBS-TRP.

recombinant human IL-17A [2] = target: T2, recombinant human IL-17A; test: as above
Protocol: as §1, §2

[3] = target: T1, recombinant human IL-17A/F (heterodimer); test: cell-based or functional assay
recombinant human IL-17A [4] = target: T2, recombinant human IL-17A; test: cell-based or functional assay

Row | Binder | Ka [1] [M⁻¹] | Kd [1] [nM] | Ka (recombinant human IL-17A [2]) [M⁻¹] | Kd (recombinant human IL-17A [2]) [nM] | IC50, neutralization of IL-6 production in normal human dermal fibroblasts [3] | IC50, neutralization of IL-6 production in normal human dermal fibroblasts (recombinant human IL-17A [4])
1 | F(ab')2 fragment of OREG-210 (other) VH: QVQLKESGPDLVAPSQSLSITCTVSGFSLTSYGIHWVRQPPGKGLEWLVVIWSDGTTTYNSALKSRLSISKDNSKSQVFLKMNSLQTDDTAMYYCASSYDYLYHYTMDYWGQGTSVTVSS VL: DVVMTQTPLSLPVSLGDQASISCRSSQSLVHSNGNTYFHWYLQKPGQSPKLLIYKVSNRFSGVPDRFSGSGSGTDFTLKISRVEAEDLGVYFCSQSTHVPLTFGAGTNLELK | – | – | – | – | 1160 ng/ml and 11.6 nM | 1050 ng/ml and 10.5 nM
2 | Fab fragment of OREG-210 (Fab, V domains shown) VH: QVQLKESGPDLVAPSQSLSITCTVSGFSLTSYGIHWVRQPPGKGLEWLVVIWSDGTTTYNSALKSRLSISKDNSKSQVFLKMNSLQTDDTAMYYCASSYDYLYHYTMDYWGQGTSVTVSS VL: DVVMTQTPLSLPVSLGDQASISCRSSQSLVHSNGNTYFHWYLQKPGQSPKLLIYKVSNRFSGVPDRFSGSGSGTDFTLKISRVEAEDLGVYFCSQSTHVPLTFGAGTNLELK | – | – | – | – | 605 ng/ml and 12.1 nM | 1120 ng/ml and 22.4 nM
3 | OREG-203 (antibody, V domains shown, also called mAb OREG-203; Ab OREG-203) VH: QAQLQQSGAELVKPGASVKMSCKAFGYTFTTFPIEWMKQNHGKSLEWIGNFHPYNDYTKYNEKFKGKAKLTVEKSSRTVYLELSRLTSDDSAVYYCARGAYYGDYVSHTMDFWGQGTSVTVSS VL: NIVLTQSPASLAVSLGQRATISCRASESVDSYGNSFMHWYQQKPGQPPKLLIYLASNLESGVPARFSGSGSRTDFTLTIDPVEADDAAIYYCQQNNEDPLTFGAGTKLELK | 1e+09 | 1 | 1.4e+09 | 0.714 | 30.2 ng/ml and 0.2 nM | 115 ng/ml and 0.76 nM
4 | Fab fragment of OREG-203 (Fab, V domains shown) VH: QAQLQQSGAELVKPGASVKMSCKAFGYTFTTFPIEWMKQNHGKSLEWIGNFHPYNDYTKYNEKFKGKAKLTVEKSSRTVYLELSRLTSDDSAVYYCARGAYYGDYVSHTMDFWGQGTSVTVSS VL: NIVLTQSPASLAVSLGQRATISCRASESVDSYGNSFMHWYQQKPGQPPKLLIYLASNLESGVPARFSGSGSRTDFTLTIDPVEADDAAIYYCQQNNEDPLTFGAGTKLELK | – | – | – | – | 15.3 ng/ml and 0.306 nM | 75.9 ng/ml and 1.52 nM

Continued, values first:

Row | Ka [1] [M⁻¹] | Kd [1] [nM] | Ka (recombinant human IL-17A [2]) [M⁻¹] | Kd (recombinant human IL-17A [2]) [nM] | IC50, neutralization of IL-6 production in normal human dermal fibroblasts [3] | IC50, neutralization of IL-6 production in normal human dermal fibroblasts (recombinant human IL-17A [4]) | Binder
5 | 3.4e+08 | 2.94 | 6.4e+08 | 1.56 | 167 ng/ml and 1.1 nM | 110 ng/ml and 0.74 nM | OREG-210 (antibody, V domains shown, also called mAb OREG-210; Ab OREG-210) VH: QVQLKESGPDLVAPSQSLSITCTVSGFSLTSYGIHWVRQPPGKGLEWLVVIWSDGTTTYNSALKSRLSISKDNSKSQVFLKMNSLQTDDTAMYYCASSYDYLYHYTMDYWGQGTSVTVSS VL: DVVMTQTPLSLPVSLGDQASISCRSSQSLVHSNGNTYFHWYLQKPGQSPKLLIYKVSNRFSGVPDRFSGSGSGTDFTLKISRVEAEDLGVYFCSQSTHVPLTFGAGTNLELK
6 | 2.67e+09 | 0.375 | 1.54e+09 | 0.649 | 40.1 ng/ml and 0.26 nM | 96.5 ng/ml and 0.64 nM | OREG-207 (antibody, V domains shown, also called mAb OREG-207; Ab OREG-207) VH: QAQLQQSGAELVKPGASVKMSCKAFGYTFTTFPIEWMKQNHGKSLEWIGNFHPYNDYTKYNEKFKGKAKLTVEKSSSTVYLELSRLTSDDSAVYYCARGAYYGDYVSHTMDFWGQGTSVTVSS VL: NIVLTQSPASLAVSLGQRATISCRASESVDSYGNSFMHWYQQKPGQPPKLLIYLASNLESGVPARFSGSGSRTDFTLTIDPVEADDAAIYYCQQNNEDPLTFGAGTKLELK
